Assay results: patent US11142588B2, “Polypeptides which bind C-X-C chemokine receptor type 4 (CXCR4) and methods of treating or reducing the risk of fibrosis and cancer” (AdAlta Limited, priority 2015, dated 2021)
“Also recorded” adds a separate entry of the source.

Key:
[1] = biological target: CCR5 positive lipoparticles (Homo sapiens, UniProt P51681); assay: Biacore SPR binding to CCR5 positive lipoparticles (off-target control)
[2] = Binding to null lipoparticles (off-target control)
Protocol: (FIGS. 2A-2C, 5A-5C, 11A-11D, 17A-17B) Kinetic binding analysis of selected i-bodies with immobilized CXCR4 lipoparticles were performed at 25° C. using Biacore T200 instrument (GE Healthcare, Uppsala, Sweden). Streptavidin immobilization was performed in 1×HBS-P+ running buffer (10 mM HEPES, 150 mM NaCl, 0.05% [v/v] Tween-20). Amine coupling kit (GE Healthcare) and the instructions therein were utilized for the attachment of Streptavidin (Sigma; diluted to 100 μg/mL in 10 mM sodium acetate buffer pH 4.5) in all four channels on the sensor chip surface simultaneously, resulting in >6,000 RU of Streptavidin being coupled (1 RU=1 pg protein/mm^2). All binding experiments involving lipoparticles were performed with 1×HBS/BSA (10 mM HEPES, 150 mM NaCl, 1 mg/mL BSA) as instrument running buffer. Biotinylated CXCR4 lipoparticles (Integral Molecular, Cat #LEV-101B; 3.6 U/mL as described in WO 2005/042695) were typically diluted 1 in 20 in the running buffer and immobilized onto a Streptavidin containing channel by injecting at […] for 1,800 sec resulting in captured response levels of greater than 2,500 RU. […] In order to determine binding kinetics, serial dilutions (three-fold) of i-bodies diluted in 1×HBS/BSA were injected over immobilized lipoparticles with the association and dissociation phases monitored for 60 sec and 600 sec, respectively. […]

CCR4 = biological target: T1, CCR4 (Homo sapiens, UniProt P51679); assay: PathHunter (DiscoverX) β-arrestin assay, CCR4; assay type: cell-based
T1 sequence (P51679 1-360): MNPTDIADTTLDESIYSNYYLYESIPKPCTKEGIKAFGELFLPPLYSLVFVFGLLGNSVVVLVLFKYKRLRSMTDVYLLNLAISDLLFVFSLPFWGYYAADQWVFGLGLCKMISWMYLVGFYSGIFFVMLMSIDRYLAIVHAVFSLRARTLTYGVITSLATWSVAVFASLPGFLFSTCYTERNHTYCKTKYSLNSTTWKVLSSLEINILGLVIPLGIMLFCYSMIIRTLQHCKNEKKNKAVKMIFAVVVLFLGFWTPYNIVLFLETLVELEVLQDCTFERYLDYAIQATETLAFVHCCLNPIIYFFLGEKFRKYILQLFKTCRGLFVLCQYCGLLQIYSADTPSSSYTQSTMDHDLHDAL
Protocol: (FIG. 9) The PathHunter® β-Arrestin assay (DiscoveRx) was performed according to the manufacturer's protocol. Cells were seeded into white walled, 384-well tissue culture-treated microplates (Corning) and normalized at 5,000 cells (or 10,000 cells for CXCR4) in a total volume of […]. Cell growth was at 37° C. (5% CO2, 95% relative humidity). […] Agonists were then added at the EC80 concentration and incubation was continued at 37° C. for 90 min (or 180 min for CCR1). Assay signal was generated through a single addition of 15 μL (50% v/v) of PathHunter Detection reagent cocktail, followed by 1 h incubation at room temperature. Microplates were read following signal generation with a PerkinElmer Envision instrument for chemiluminescent signal detection of relative light units (RLU).

CXCR4 = CXCR4 (Homo sapiens, UniProt P61073); assay: β-arrestin BRET assay, antagonist mode with 100 nM SDF-1; assay type: cell-based; set-up: expressed in transfected cells; host or cells: HEK293FT
Chain of CXCR4 (P61073 whole entry): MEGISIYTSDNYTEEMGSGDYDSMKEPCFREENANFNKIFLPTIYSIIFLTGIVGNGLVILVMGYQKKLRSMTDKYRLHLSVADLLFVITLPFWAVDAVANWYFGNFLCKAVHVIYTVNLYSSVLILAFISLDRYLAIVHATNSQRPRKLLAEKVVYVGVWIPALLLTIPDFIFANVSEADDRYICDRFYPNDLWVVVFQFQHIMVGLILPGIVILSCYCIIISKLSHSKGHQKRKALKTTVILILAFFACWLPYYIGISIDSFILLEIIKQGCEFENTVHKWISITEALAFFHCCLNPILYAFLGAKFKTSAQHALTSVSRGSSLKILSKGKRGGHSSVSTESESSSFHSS
Text: (FIGS. 3A-3F and 14) BRET was used in this study to assess the real-time kinetic profiles resulting from any consequent increase in proximity, building upon the previously validated monitoring of GPCR/β-arrestin interactions utilizing BRET. BRET occurs between a complementary Renilla luciferase (Rluc) variant as donor and green fluorescent protein variant as acceptor. Upon Rluc-catalyzed oxidation of the coelenterazine substrate (such as coelenterazine h for first generation BRET (BRET) or EnduRen for extended BRET (eBRET), energy is transferred to the acceptor if within 10 nm, resulting in acceptor light emission peaking at a characteristic wavelength. BRET (3-arrestin assays were carried out as described previously (See, H. B., Seeber, R. M., Kocan, M., Eidne, K. A. and Pfleger, K. D. (2011) ‘Application of G protein-coupled receptor-heteromer identification technology to monitor beta-arrestin recruitment to G protein-coupled receptor heteromers’, Assay Drug Dev Technol, 9(1), 21-30, 10.1089/adt.2010.0336). CXCR4/Rluc8 cDNA constructs were generated from plasmids containing the respective receptor cDNA tagged with Rluc kindly provided by Aron Chakera (Oxford University, United Kingdom). The β-arrestin 2/Venus cDNA construct was prepared previously from pCS2-Venus kindly provided by Atsushi Miyawaki (RIKEN Brain Science Institute, Wako-city, Japan). BRET technology in cells transiently expressing CXCR4/Rluc8 and β-arrestin2/Venus in the presence of 100 nM SDF-1 agonist was evaluated in the presence of the CXCR4 agonist SDF-1/CXCL12 and the i-bodies. HEK293FT cells were maintained at 37° C., 5% CO2 in Complete Media (Dulbecco's modified Eagle's medium containing 0.3 mg/mL glutamine, 100 IU/mL penicillin, and […] streptomycin; Gibco) supplemented with 10% fetal calf serum (FCS) and […] Geneticin (Gibco). Transfections were carried out 24 h after seeding using Genejuice (Novagen) according to manufacturer's instructions. Cells were harvested with 0.05% Trypsin-EDTA (Gibco). HEK293FT cells were transfected using FuGene6 (Promega). 5 μM coelenterazine h (Promega) in HBSS was used as the luciferase substrate solution. Cells were harvested 24 h post-transfection in HEPES-buffered phenol red-free Complete Medium containing 5% FCS and added to a poly-L-lysine-coated white 96-well plate (Nunc). Dose-response curves were generated using BRET, with medium in the plate being replaced with PBS containing […] coelenterazine h (Molecular Probes) and assays carried out immediately. For these assays, 48 h post-transfection, the plate was incubated at […], 5% CO2 for 2 h with […] EnduRen (Promega) to ensure substrate equilibrium was reached. All BRET measurements were taken at 37° C. using the VICTOR Light plate reader with Wallac 1420 software (PerkinElmer). Filtered light emissions were sequentially measured at 400-475 and 520-540 nm. The BRET signal was calculated by subtracting the ratio of 520-540 nm emission over 400-475 nm emission for a vehicle-treated cell sample from the same ratio for a second aliquot of the same cells treated with agonist (in this instance in the presence of SDF-1 or CXCL12) and i-body (ADCX-99, ADCX-272, ACDX-6, ACDX-306, ADCX-668) at various concentrations. Data are mean±S.E.M. of four independent experiments carried out in duplicate.
Binding of the i-bodies to CXCR4 were examined in a β-Arrestin BRET assay as described in See, Heng B et al (2011) Assay and Drug Development Technologies 9(1):21-30. The i-bodes were examined at ten concentrations with and without 100 nM SDF-1 with the addition of ‘vehicle’ and ‘SDF-1+vehicle’ controls in order to characterise if the i-bodies are agonist or antagonists of CXCR4 activity.

Chain of CCR5 positive lipoparticles (P51681 whole entry): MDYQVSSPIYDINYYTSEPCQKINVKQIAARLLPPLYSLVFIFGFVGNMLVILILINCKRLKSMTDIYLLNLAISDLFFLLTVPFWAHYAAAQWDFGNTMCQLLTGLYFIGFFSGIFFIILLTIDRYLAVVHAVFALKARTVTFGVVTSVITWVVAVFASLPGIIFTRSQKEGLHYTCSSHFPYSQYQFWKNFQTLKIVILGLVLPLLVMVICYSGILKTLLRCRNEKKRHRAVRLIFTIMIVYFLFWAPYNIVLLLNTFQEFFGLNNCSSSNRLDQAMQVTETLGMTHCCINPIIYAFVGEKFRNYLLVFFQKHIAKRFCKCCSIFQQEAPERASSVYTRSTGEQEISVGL

B1: ADCX-99: CXCR4 binding i-body, SEQ ID NO: 11, parent of affinity matured binders (protein)
chain: LQVDIVPSQGEISVGESKFFLCQVAGSGSDIRISWFSPNGEKLTPNQQRISVVWNDDSSSTLTIYNANIDDAGIYKCVVYRTGGYRHRALVLGEATVNVKIFQ
modifications: ADCX-99 protein sequence
[1]
  binding to CCR5 positive lipoparticles: did not bind; also recorded: very little binding
[2]
  binding to null lipoparticles: did not bind; also recorded: very little binding
CCR4
  CCR4 activity: 34%
CXCR4
  IC50 (nM) in β-Arrestin BRET assay (Antagonist mode in the presence of 100 nM SDF-1): very weak effect; also recorded: No activity
CXCR4; various concentrations
  β-arrestin activity: some degree of inhibition
